Assay results from the Immune Epitope Database (IEDB).

Key:
HLA-A*02:06 = experiment: IEDB peptide-MHC binding, purified MHC/competitive/radioactivity; filed as Kd, often an IC50 or EC50 that approximates it; ≥ and ≤ were set here for values at or beyond the usual limits of such assays
HLA-A*02:02 = experiment: as above
HLA-A*02:03 = experiment: as above
HLA-A*24:02 = experiment: as above
HLA-A*03:01 [1] = experiment: IEDB peptide-MHC binding, purified MHC/direct/fluorescence; filed as Kd, often an IC50 or EC50 that approximates it; ≥ and ≤ were set here for values at or beyond the usual limits of such assays; conditions: source organism: Mammarenavirus juninense
HLA-A*26:01 = experiment: IEDB peptide-MHC binding, purified MHC/competitive/radioactivity; filed as Kd, often an IC50 or EC50 that approximates it; ≥ and ≤ were set here for values at or beyond the usual limits of such assays; conditions: source organism: Dengue virus 4 Dominica/814669/1981
HLA-A*31:01 = experiment: as above; conditions: source organism: Vaccinia virus WR
HLA-A*03:01 [2] = experiment: as above; conditions: source organism: Vaccinia virus WR
HLA-A*68:01 = experiment: as above; conditions: source organism: Vaccinia virus WR
HLA-A*33:01 = experiment: as above; conditions: source organism: Vaccinia virus WR
HLA-A*11:01 = experiment: as above; conditions: source organism: Vaccinia virus WR
[3] = source organism: Vaccinia virus WR
[4] = source organism: SARS coronavirus Tor2

Sequence	Kd (HLA-A*02:06; [3]) [nM]	Kd (HLA-A*02:02; [3]) [nM]	Kd (HLA-A*02:03; [3]) [nM]	also measured
PTSETMYLTM	915	862	191	
QILDNAAKYV	11400	3930	3870	
QLYTISSESL	4750	71.7	245	
QVKELGIAI	3710	9050	882	
QYIYMGEPLE				Kd (HLA-A*24:02; source organism: Dengue virus 2 Jamaica/1409/1983): 9090 nM
RTRLYDYFT	≥ 48500	7100	3050	
SAEVERLMEL	1250	1280	2500	
SLFNRGRLK				Kd (HLA-A*03:01 [1]): 42.4 nM
SLGLILLKIV				Kd (HLA-A*02:03; source organism: Dengue virus 4 Dominica/814669/1981): 14.7 nM
SLVITYCLV	269	1690	201	
SQMETDFLEL				Kd (HLA-A*02:06; [4]): 20.6 nM; Kd (HLA-A*02:02; [4]): 227 nM; Kd (HLA-A*02:03; [4]): 597 nM
SQVNPLTLTA				Kd (HLA-A*02:06; source organism: Dengue virus 1 Brazil/97-11/1997): 167 nM
STITLLCLI				Kd (HLA-A*26:01): 867 nM
TLFIDRGSI	≥ 77100	2100	802	
TLIMIGSNA				Kd (HLA-A*02:03; source organism: Dengue virus 3 Martinique/1243/1999): 32 nM
TMLDVDLRPA				Kd (HLA-A*02:06; source organism: Dengue virus 1 Singapore/S275/1990): 16.9 nM
TTENAAYQVL	≥ 69800	≥ 29700	≥ 70400	
TTIGTIAGGV	84.3	741	42.6	
TTLLNETAKV	1650	1640	0.17	
TWVTYGTCTT				Kd (HLA-A*24:02; source organism: Dengue virus 2 Peru/IQT2913/1996): ≥ 70300 nM
VAALDGTFQR				Kd (HLA-A*31:01): 124 nM; Kd (HLA-A*03:01 [2]): ≥ 34100 nM; Kd (HLA-A*68:01): 40.1 nM; Kd (HLA-A*33:01): 675 nM; Kd (HLA-A*11:01): 681 nM
VFTDISMSLY				Kd (HLA-A*31:01): 11600 nM; Kd (HLA-A*03:01 [2]): 8240 nM; Kd (HLA-A*68:01): 2300 nM; Kd (HLA-A*33:01): 6760 nM; Kd (HLA-A*11:01): 2290 nM
VIGLSGDSER				Kd (HLA-A*31:01): 8890 nM; Kd (HLA-A*03:01 [2]): ≥ 63700 nM; Kd (HLA-A*68:01): 182 nM; Kd (HLA-A*33:01): 1180 nM; Kd (HLA-A*11:01): 15900 nM
VIPDELIDV	556	609	43.8	
VLALYSPPL	32.6	0.224	0.412	
